Reference: patent US20060240023A1 (Takeda / Millennium, published 2006)

Target: T1, ASK1-KR (human ASK1 with lysine 709 at the ATP-binding site replaced with arginine) (human, UniProt Q99683 1-1374)
T1 construct: Bait in the yeast two-hybrid screen (Brent's system); also called bait
T1 sequence (looked up): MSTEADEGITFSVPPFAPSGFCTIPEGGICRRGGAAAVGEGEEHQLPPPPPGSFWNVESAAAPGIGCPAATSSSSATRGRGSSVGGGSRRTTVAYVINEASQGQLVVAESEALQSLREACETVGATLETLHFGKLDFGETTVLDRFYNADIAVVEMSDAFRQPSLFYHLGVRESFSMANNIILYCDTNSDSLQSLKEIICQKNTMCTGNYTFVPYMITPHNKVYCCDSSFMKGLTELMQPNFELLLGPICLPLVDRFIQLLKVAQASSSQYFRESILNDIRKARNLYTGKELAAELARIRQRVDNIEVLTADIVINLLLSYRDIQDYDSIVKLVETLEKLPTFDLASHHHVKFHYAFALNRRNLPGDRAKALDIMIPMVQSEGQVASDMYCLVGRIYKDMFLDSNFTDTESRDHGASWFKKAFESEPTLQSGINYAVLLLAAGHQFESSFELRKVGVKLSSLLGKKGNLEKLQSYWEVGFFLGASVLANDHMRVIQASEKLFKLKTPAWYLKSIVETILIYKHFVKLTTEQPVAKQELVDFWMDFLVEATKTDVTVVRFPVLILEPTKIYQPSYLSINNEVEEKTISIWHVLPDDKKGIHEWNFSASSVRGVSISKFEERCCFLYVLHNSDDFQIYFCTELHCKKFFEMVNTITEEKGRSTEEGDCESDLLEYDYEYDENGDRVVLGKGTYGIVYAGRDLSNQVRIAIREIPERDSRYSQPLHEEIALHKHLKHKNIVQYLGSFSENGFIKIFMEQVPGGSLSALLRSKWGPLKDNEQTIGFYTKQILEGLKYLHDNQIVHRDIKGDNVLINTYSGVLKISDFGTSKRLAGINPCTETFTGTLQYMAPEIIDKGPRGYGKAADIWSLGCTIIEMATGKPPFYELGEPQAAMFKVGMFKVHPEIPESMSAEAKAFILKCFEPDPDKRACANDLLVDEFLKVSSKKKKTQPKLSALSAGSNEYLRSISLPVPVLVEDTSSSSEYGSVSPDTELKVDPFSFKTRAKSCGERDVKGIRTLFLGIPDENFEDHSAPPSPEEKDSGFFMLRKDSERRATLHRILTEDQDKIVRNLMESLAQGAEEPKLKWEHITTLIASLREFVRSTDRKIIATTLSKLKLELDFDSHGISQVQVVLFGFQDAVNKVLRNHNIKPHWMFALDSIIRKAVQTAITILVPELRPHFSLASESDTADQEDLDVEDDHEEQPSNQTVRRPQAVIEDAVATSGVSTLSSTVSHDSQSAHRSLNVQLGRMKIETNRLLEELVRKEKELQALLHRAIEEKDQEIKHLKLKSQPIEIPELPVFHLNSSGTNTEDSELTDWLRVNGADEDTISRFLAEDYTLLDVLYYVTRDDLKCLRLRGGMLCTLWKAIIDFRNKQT
Assay: yeast two-hybrid (Brent's system), ASK1-KR as bait, fetal human brain expression library as prey; positive clone
Method: To identify the ASK1-binding protein, screening was conducted by the yeast two-hybrid method using Brent's system [Zervos et al., Cell, Vol. 72, p. 223-232, 1993; Gyuris et al., Cell, Vol. 75, p. 791-803, 1993] with ASK1-KR, prepared by replacing lysine (K) at the ATP-binding site (position 709) in the kinase domain of human ASK1 with arginine (R), as a bait and an expression library of fetal human brain origin as a prey. As a result, about 1200 positive clones were obtained. Database search of one of them based on its base sequence identified it as a portion of the protein coding region of the gene designated as “PGR1” (a portion corresponding to amino acid positions 35 to 127). […] Since this protein was identified as an ASK1-binding protein, it was designated as ASK1 binding protein 1 (ABP1).

B1: ABP1 (PGR1) fragment, amino acid positions 35 to 127, positive clone of the two-hybrid screen (other)
chain: MREDIASLTREHGRAYLRNRSKLWEMDNMLIQIKTQVEASEESALNHLQNPGDAAEGRAAKRCEKAEEKAKEIAKMAEMLVELVRRIEKSESS
notes: Prey from an expression library of fetal human brain origin; also called PGR1 (a portion corresponding to amino acid positions 35 to 127); prey clone
binding result: binds
